From the supplement of paper PMC9112550, “Optimization of the antimicrobial peptide Bac7 by deep mutational scanning” (BMC Biology, 2022) come the findings set out here.
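Further: peptides expressed intracellularly from a pBAD plasmid library in pooled LB shake-flask culture, induced with 0.3% L-arabinose, DNA abundance read by NGS, three biological replicates, DESeq2 with apeglm shrinkage.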

The data set has as its system Escherichia coli TOP10. Put plainly: shrunken log2 fold change of peptide-encoding DNA abundance (4.5 h post-induction vs induction); higher = less antimicrobial activity (less host growth inhibition). As to conditions: time post-induction: 4.5 h; library: site-saturation at positions 5, 18, 19, 20.
Turning to RRIRMRPPRLPRPRPRPDPVPRP, the “shrunken log2 fold change” value is -0.0377. For the sequence RRIRMRPPRLPRPRPRPGSCPRP, the “shrunken log2 fold change” value stood at 0.29. The figure for RRIRGRPPRLPRPRPRPHHWPRP is 0.431; for RRIRERPPRLPRPRPRPHYSPRP it is -0.16.

In the case of RRIRPRPPRLPRPRPRPDVAPRP, the “shrunken log2 fold change” value was -0.0448. For the sequence RRIRPRPPRLPRPRPRPKWHPRP, the “shrunken log2 fold change” value is 0.173.

As for RRIRNRPPRLPRPRPRPQPYPRP, the “shrunken log2 fold change” value was -0.0389.

As to RRIRGRPPRLPRPRPRPPLVPRP, the “shrunken log2 fold change” value came out at 0.813. Take RRIRERPPRLPRPRPRPNANPRP: the “shrunken log2 fold change” value amounted to 0.343. Regarding RRIRIRPPRLPRPRPRPECVPRP, the “shrunken log2 fold change” value turned out to be 0.0147. On to RRIRDRPPRLPRPRPRPGDLPRP, for which the “shrunken log2 fold change” value came out at 0.178. Take RRIRLRPPRLPRPRPRPPNTPRP: the “shrunken log2 fold change” value was 0.00316. Consider RRIRERPPRLPRPRPRPMNCPRP, for which the “shrunken log2 fold change” value is 0.0528. Consider RRIRQRPPRLPRPRPRPQADPRP, for which the “shrunken log2 fold change” value turned out to be 0.0769. RRIRNRPPRLPRPRPRPVRHPRP: the “shrunken log2 fold change” value is -0.0637. The figure for RRIRSRPPRLPRPRPRPSGWPRP is 0.434; for RRIRPRPPRLPRPRPRPHGWPRP it is 0.274. The figure for RRIRMRPPRLPRPRPRPERHPRP is 0.764; for RRIRGRPPRLPRPRPRPWNIPRP it is -0.409. Turning to RRIRARPPRLPRPRPRPSMCPRP, the “shrunken log2 fold change” value is -0.081. In the case of RRIRFRPPRLPRPRPRPFFFPRP it was 0.121. The figure for RRIRQRPPRLPRPRPRPEHEPRP is 0.0155; for RRIRDRPPRLPRPRPRPNILPRP it is -0.437. The figure for RRIRIRPPRLPRPRPRPHDQPRP is -0.573. With RRIRDRPPRLPRPRPRPRTDPRP, the “shrunken log2 fold change” value is 0.0936.

In the case of RRIRTRPPRLPRPRPRPCSFPRP, the “shrunken log2 fold change” value was -0.625. RRIRVRPPRLPRPRPRPWVKPRP: the “shrunken log2 fold change” value is -0.235. The figure for RRIRWRPPRLPRPRPRPPAGPRP is 0.83; for RRIRKRPPRLPRPRPRPHRYPRP it is 0.321. As for RRIRDRPPRLPRPRPRPYDAPRP, the “shrunken log2 fold change” value is -0.00235.

RRIRARPPRLPRPRPRPRNPPRP: the “shrunken log2 fold change” value was 0.225.

Turning to RRIRYRPPRLPRPRPRPEWDPRP, the “shrunken log2 fold change” value was -0.0176. In the case of RRIRARPPRLPRPRPRPMPKPRP it was 0.411; in that of RRIRIRPPRLPRPRPRPWDHPRP, 0.0393. Turning to RRIRVRPPRLPRPRPRPKYSPRP, the “shrunken log2 fold change” value was -0.122. For the sequence RRIRDRPPRLPRPRPRPSRVPRP, the “shrunken log2 fold change” value is 0.0593. For the sequence RRIRTRPPRLPRPRPRPPEHPRP, the “shrunken log2 fold change” value was determined as 0.0826. In the case of RRIRPRPPRLPRPRPRPRQTPRP it was 0.338; in that of RRIRRRPPRLPRPRPRPQSCPRP, 0.107; in that of RRIRERPPRLPRPRPRPVPIPRP, 0.343. Regarding RRIRARPPRLPRPRPRPWDCPRP, the “shrunken log2 fold change” value is 0.0143.

For RRIRKRPPRLPRPRPRPANYPRP, the “shrunken log2 fold change” value was 0.0421.

On to RRIRLRPPRLPRPRPRPGTPPRP, for which the “shrunken log2 fold change” value was 0.0973. The figure for RRIRKRPPRLPRPRPRPLWLPRP is 0.377; for RRIRERPPRLPRPRPRPDYPPRP it is 0.00237. As to RRIRVRPPRLPRPRPRPNTAPRP, the “shrunken log2 fold change” value was -0.147. As for RRIRKRPPRLPRPRPRPRRNPRP, the “shrunken log2 fold change” value is 0.316. In the case of RRIRCRPPRLPRPRPRPYRFPRP it was -0.746; in that of RRIRVRPPRLPRPRPRPWNCPRP, 0.0131; in that of RRIRQRPPRLPRPRPRPLIFPRP, -0.432. As for RRIRPRPPRLPRPRPRPHYTPRP, the “shrunken log2 fold change” value is -0.516. In the case of RRIRTRPPRLPRPRPRPIITPRP it was -0.645; in that of RRIRHRPPRLPRPRPRPPVCPRP, -0.0372; in that of RRIRERPPRLPRPRPRPQPCPRP, -0.312.

Turning to RRIRNRPPRLPRPRPRPVIFPRP, the “shrunken log2 fold change” value was -0.565. In the case of RRIRERPPRLPRPRPRPNTFPRP, the “shrunken log2 fold change” value is -0.388. Turning to RRIRDRPPRLPRPRPRPVSQPRP, the “shrunken log2 fold change” value was -0.0185. In the case of RRIRGRPPRLPRPRPRPHYIPRP it was -0.0882. Take RRIRARPPRLPRPRPRPWPEPRP: the “shrunken log2 fold change” value is 0.245. On to RRIRARPPRLPRPRPRPLDFPRP, for which the “shrunken log2 fold change” value came to 0.173. With RRIRMRPPRLPRPRPRPRFNPRP, the “shrunken log2 fold change” value was determined as 0.148. The figure for RRIRERPPRLPRPRPRPTREPRP is 0.329; for RRIRIRPPRLPRPRPRPRQHPRP it is -0.199. In the case of RRIRERPPRLPRPRPRPQEFPRP it was -0.0119; in that of RRIRTRPPRLPRPRPRPFPVPRP, -0.177. In the case of RRIRWRPPRLPRPRPRPNFNPRP it was -0.198; in that of RRIRARPPRLPRPRPRPTIIPRP, -0.0837. RRIRDRPPRLPRPRPRPICDPRP: the “shrunken log2 fold change” value came to 0.137. The figure for RRIRHRPPRLPRPRPRPFFEPRP is -0.0877; for RRIRFRPPRLPRPRPRPLPTPRP it is 0.336. In the case of RRIRERPPRLPRPRPRPMFLPRP it was -0.206; in that of RRIRMRPPRLPRPRPRPNPNPRP, 0.394.

In the case of RRIRQRPPRLPRPRPRPWFVPRP, the “shrunken log2 fold change” value was -0.423. In the case of RRIRHRPPRLPRPRPRPVHRPRP it was -0.143. Take RRIRKRPPRLPRPRPRPMPWPRP: the “shrunken log2 fold change” value was found to be 0.321.

As to RRIRRRPPRLPRPRPRPIVEPRP, the “shrunken log2 fold change” value amounted to 0.136. The figure for RRIRCRPPRLPRPRPRPGTDPRP is -0.00121; for RRIRWRPPRLPRPRPRPMCEPRP it is -0.0562. In the case of RRIRERPPRLPRPRPRPVNNPRP it was -0.871. Regarding RRIRLRPPRLPRPRPRPNMQPRP, the “shrunken log2 fold change” value was -0.171. The figure for RRIRMRPPRLPRPRPRPHDSPRP is -0.0393; for RRIRQRPPRLPRPRPRPYQGPRP it is 0.00707; for RRIRTRPPRLPRPRPRPRMPPRP it is 0.199. The figure for RRIRPRPPRLPRPRPRPLHNPRP is -0.201. In the case of RRIRFRPPRLPRPRPRPTSQPRP, the “shrunken log2 fold change” value is -0.0191. Regarding RRIRFRPPRLPRPRPRPLCQPRP, the “shrunken log2 fold change” value was -0.12. In the case of RRIRWRPPRLPRPRPRPTITPRP it was -0.335. In the case of RRIRERPPRLPRPRPRPHDNPRP it was -0.227; in that of RRIRQRPPRLPRPRPRPERGPRP, 0.105; in that of RRIRNRPPRLPRPRPRPLCWPRP, -0.198.

On to RRIRRRPPRLPRPRPRPNPWPRP, for which the “shrunken log2 fold change” value came to 0.231.

On to RRIRDRPPRLPRPRPRPWVMPRP, for which the “shrunken log2 fold change” value was -0.167. In the case of RRIRGRPPRLPRPRPRPKECPRP it was 0.0235; in that of RRIRKRPPRLPRPRPRPLISPRP, 0.0452; in that of RRIRGRPPRLPRPRPRPKCAPRP, 1.61. In the case of RRIRFRPPRLPRPRPRPMGWPRP, the “shrunken log2 fold change” value came out at 0.0642.

In the case of RRIRIRPPRLPRPRPRPLRQPRP, the “shrunken log2 fold change” value was 0.335.

In the case of RRIRQRPPRLPRPRPRPGTCPRP, the “shrunken log2 fold change” value was -0.266. RRIRQRPPRLPRPRPRPTFDPRP: the “shrunken log2 fold change” value is 0.168. As to RRIRRRPPRLPRPRPRPNWHPRP, the “shrunken log2 fold change” value was determined as 0.151. In the case of RRIRTRPPRLPRPRPRPTWVPRP it was 0.149; in that of RRIRTRPPRLPRPRPRPDGTPRP, -0.208. As to RRIRWRPPRLPRPRPRPCIVPRP, the “shrunken log2 fold change” value was 0.0112. The figure for RRIRIRPPRLPRPRPRPGSQPRP is -0.0143; for RRIRGRPPRLPRPRPRPWPRPRP it is 0.37; for RRIRDRPPRLPRPRPRPGLDPRP it is 0.0981.

On to RRIRNRPPRLPRPRPRPVMEPRP, for which the “shrunken log2 fold change” value is -0.173. Take RRIRVRPPRLPRPRPRPEYAPRP: the “shrunken log2 fold change” value was 0.111. As for RRIRDRPPRLPRPRPRPQSLPRP, the “shrunken log2 fold change” value was -0.0208. Take RRIRKRPPRLPRPRPRPLHHPRP: the “shrunken log2 fold change” value was found to be 0.141. For RRIRERPPRLPRPRPRPWHYPRP, the “shrunken log2 fold change” value is -0.067. The figure for RRIRVRPPRLPRPRPRPRQDPRP is 0.582; for RRIRPRPPRLPRPRPRPIVPPRP it is -0.208.

Regarding RRIRRRPPRLPRPRPRPILDPRP, the “shrunken log2 fold change” value worked out at 0.0526. In the case of RRIRNRPPRLPRPRPRPICCPRP it was -0.062; in that of RRIRCRPPRLPRPRPRPDMSPRP, -0.329; in that of RRIRCRPPRLPRPRPRPCDRPRP, -0.351. With RRIRVRPPRLPRPRPRPFHSPRP, the “shrunken log2 fold change” value worked out at 0.0749.

RRIRVRPPRLPRPRPRPYCVPRP: the “shrunken log2 fold change” value is -0.125.

For the sequence RRIRHRPPRLPRPRPRPIVHPRP, the “shrunken log2 fold change” value is -0.125. RRIRERPPRLPRPRPRPRHRPRP: the “shrunken log2 fold change” value is -0.114. The figure for RRIRGRPPRLPRPRPRPHPPPRP is 0.759. Regarding RRIRCRPPRLPRPRPRPKTHPRP, the “shrunken log2 fold change” value was -0.115. In the case of RRIRCRPPRLPRPRPRPNQQPRP it was 0.00277. In the case of RRIRGRPPRLPRPRPRPNGEPRP it was 1.81.
